Data on 14 molecules can be found in US20250122301A1 (IBIO, published 2025).

Experiment [1] deals with T1, CD25 on CD25+ cells (SUDHL-1, HEK IL-2 reporter cells, primary human regulatory T cells) (human, UniProt P01589 22-272).
T1 construct: whole, on cells; also called IL-2Ralpha
T1 sequence (looked up): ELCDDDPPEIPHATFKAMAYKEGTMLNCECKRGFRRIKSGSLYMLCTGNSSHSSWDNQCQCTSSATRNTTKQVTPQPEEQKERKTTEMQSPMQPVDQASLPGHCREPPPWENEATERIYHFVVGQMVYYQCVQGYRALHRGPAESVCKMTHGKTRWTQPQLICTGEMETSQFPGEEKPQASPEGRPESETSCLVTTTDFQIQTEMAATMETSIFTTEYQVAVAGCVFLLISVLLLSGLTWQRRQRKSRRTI
Kind of experiment: flow cytometry, dose response on CD25+ SUDHL-1 cells.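 Also: antibody binding to cells read as median fluorescence intensity of an AF647 anti-human Fc secondary, DAPI+ dead cells excluded, 20 min on ice, 5-fold dilutions from 10 ug/mL.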

The target in experiment [2] is T1, CD25 on CD25+ cells (SUDHL-1, HEK IL-2 …). Description: cell-based or functional assay.
Experiment [3] has as its target T2, full-length CD25 (human CD25, recombinant protein used on biosensors) (human, UniProt P01589 22-213, limits assumed).
T2 construct: Printed only as Human CD25 / full-length CD25; also called CD25 antigen; alpha chain of the IL-2 receptor
T2 sequence (looked up): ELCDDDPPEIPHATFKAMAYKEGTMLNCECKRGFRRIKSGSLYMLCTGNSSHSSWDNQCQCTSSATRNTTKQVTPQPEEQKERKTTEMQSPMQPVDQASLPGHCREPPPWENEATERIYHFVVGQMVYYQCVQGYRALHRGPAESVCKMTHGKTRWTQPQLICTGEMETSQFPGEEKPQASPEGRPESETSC
Description: Octet BLI, human CD25 on AR2G tip, Fab, pH 6.5.

In experiment [4] the target is T2, full-length CD25 (human CD25, …). Description: Octet BLI, human CD25 on AR2G tip, Fab, pH 7.4.

B1: AH05280 (human IgG1 reformatted) (antibody, V domains shown)
VH: EVRLQQSGADLMKPGASVKISCKTSGYTFSNYWTEWIKQRPGHGLEWIGEILPGSGFTNYNENFKGKATFTADTSSNTTYMQLSSLTSEDSAVYYCARGGTSVVHFDYWGQGTSLTVSS
VL: DIVMTQTPKFLLVSAGDRVTITCKASQSVNNDVLWYQQKPGQSPKLLIYYASNRYTGVPDRFTGSGYGTDFTFTISTVQAEDLAVYFCQQAYWSPYTFGGGTKLEIK
For B1, the EC50 in experiment [1] is 0.387 µg/mL.

B2: AH05286 (human IgG1 reformatted) (antibody, V domains shown)
VH: QVQLKQSGADLMKPGASVKISCKASGYTFSNYWIEWIKQRPGHGLEWIGEILPGSGYTNYNENFKGKATFTADTSSNTTYIQLSSLSSEDSAVYYCARGGTSFVHFDYWGQGTTLTVSS
VL: DIVLTQSPPTLSLSPGERVTLSCKASQDVNTAVAWYQQKPGQAPRLLIYWASTRHTGVPSRFSGSGSGTDFTLTISSLQPEDFATYYCQQHYSSPWTFGGGTKLEIK
Take B2: in experiment [1], the EC50 amounted to 0.777 µg/mL.

B3: AH05249 (human IgG1 reformatted) (antibody, V domains shown)
VH: QVQLQQSGADLMKPGASVKMSCRASGYTFSNYWIEWIKQRPGHGLEWIGEILPGSGFTNYNENFKGKATFTADTSSNTTYMLLSSLSSEDSAVYYCARGGTSVVHFDSWGQGTTLTVSS
VL: DIVMTQTPKFLLVSAGDRVTITCKASQSVNNDVVWYQQKPGQSPKLLIYYASNRYTGVPDRFTGSGYGTDFTFTISTVQAEDLAVYFCQQDYRSPYTFGGGTKLEIK
Take B3: the EC50 in experiment [1] was found to be 0.897 µg/mL.

B4: D34 Fab (Fab, V domains shown)
VH: QVQLQQSGAELVRPGVSVKISCKGSGYTFTDYAMHWVKQSHAKSLEWIGVISTYSGDVSYNQKFKGKATMTVDKSSSTAYMELARLTSEDSAIYYCARGVTFDSWGQGTTVTVSS
VL: DIQMTQSPASLSASVGETVTITCRASENSYSYLEWYQQKQGKSPQLLVYNAKTLAEGVPSRFSGSGSGTQFSLKINSLQPEDFGTYYCQHHYGTPYTFGGGTKLEIK
notes: Fab; also called Fab clone D34
For B4, in experiment [2], the “pSTAT5 IC50 (1 ug/mL) [ng/ml]” value was found to be 2.56 ng/ml, the “pSTAT5 IC50 (2 ug/mL) [ng/ml]” value worked out at 2.35 ng/ml and the “pSTAT5 IC50 (5 ug/mL) [ng/ml]” value came to 2.27 ng/ml. For the same molecule, the koff in experiment [3] came out at 0.00296 s⁻¹. Further, the koff in experiment [4] stood at 0.00285 s⁻¹.

B5: D34 (human IgG1 reformatted) (antibody, V domains shown)
VH: QVQLQQSGAELVRPGVSVKISCKGSGYTFTDYAMHWVKQSHAKSLEWIGVISTYSGDVSYNQKFKGKATMTVDKSSSTAYMELARLTSEDSAIYYCARGVTFDSWGQGTTVTVSS
VL: DIQMTQSPASLSASVGETVTITCRASENSYSYLEWYQQKQGKSPQLLVYNAKTLAEGVPSRFSGSGSGTQFSLKINSLQPEDFGTYYCQHHYGTPYTFGGGTKLEIK
With B5, the EC50 in experiment [1] stood at 1.1 µg/mL.

B6: D11 (human IgG1 reformatted) (antibody, V domains shown)
VH: QIQLQQPGAELVRPGVSLKISCKGSGYTFTDYAMHWVRQSHAKSLEWIGVISTYSGDAIYNQKFKGKATMTVDKSSSTAYLELARLTSDDSAIYYCARGVTFDYWGQGTTVTVSS
VL: DIQMTQTTSSLSASLGDRVTITCRASQDISNYLEWYQQKQGKSPQLLVYNAKTLAEGVPSRFSGSGSGTQFSLKINSLQPEDFGSYYCQHHYDTPYTFGGGTKLEIK
Turning to B6, the EC50 in experiment [1] was 2.12 µg/mL.

B7: D11 Fab (Fab, V domains shown)
VH: QIQLQQPGAELVRPGVSLKISCKGSGYTFTDYAMHWVRQSHAKSLEWIGVISTYSGDAIYNQKFKGKATMTVDKSSSTAYLELARLTSDDSAIYYCARGVTFDYWGQGTTVTVSS
VL: DIQMTQTTSSLSASLGDRVTITCRASQDISNYLEWYQQKQGKSPQLLVYNAKTLAEGVPSRFSGSGSGTQFSLKINSLQPEDFGSYYCQHHYDTPYTFGGGTKLEIK
notes: Fab; also called Fab clone D11
For B7, in experiment [2], the “pSTAT5 IC50 (1 ug/mL) [ng/ml]” value came to 0.414 ng/ml, the “pSTAT5 IC50 (2 ug/mL) [ng/ml]” value was 0.303 ng/ml and the “pSTAT5 IC50 (5 ug/mL) [ng/ml]” value was 0.509 ng/ml. Besides, the koff in experiment [3] is 0.00522 s⁻¹. Also, the koff in experiment [4] was found to be 0.00452 s⁻¹.

B8: D36 Fab (Fab, V domains shown)
VH: QVQLQQPGAELVRPGVSLKISCKGSGYTFTDYAMHWVRQSHAKSLEWIGVISTYSGDALYNQKFKGKATMTVDKSSSTAYLELARLTSEDSAIYYCARGVTFDYWGQGTTLTVSS
VL: DVVMTQSPASLSASVGETVTITCRASENSYSYLEWYQQKQGKSPQLLVYNAKTLAEGVPSRFSGSGSGTQFSLKINSLQPEDFGTYYCQHHYGTPYTFGGGTKLEMK
notes: Fab; also called Fab clone D36
With B8, in experiment [2], the “pSTAT5 IC50 (1 ug/mL) [ng/ml]” value is 2.23 ng/ml, the “pSTAT5 IC50 (2 ug/mL) [ng/ml]” value is 3.45 ng/ml and the “pSTAT5 IC50 (5 ug/mL) [ng/ml]” value came to 0.378 ng/ml. In experiment [3], the koff turned out to be 0.00172 s⁻¹. Also, in experiment [4], the koff was found to be 0.000898 s⁻¹.

B9: AH05214 (human IgG1 reformatted) (antibody, V domains shown)
VH: QIQLQQPGAELVKPGASVKLPCKASGYTFTSYWMHWVKQRPGQGLEWIGEINPSNGRTNYNEKFKSKATLTVDKSSSTAYMQLSSLTSEDSAVYYCARQLAAYWGQGTTVTVSS
VL: DILLTQSPALMAASPGEKVTITCSVSSSISSSNLHWYQQKSETSPKPWIYGTSNLASGVPVRFSGSGSGTSYSLTISSMEAEDAATYYCQQWSSYPLTFGGGTKLEIK
Consider B9, for which the EC50 in experiment [1] is roughly 51.1 µg/mL.

B10: AH04734 (human IgG1 reformatted) (antibody, V domains shown)
VH: QVQLQQPAAELARPGASVKMSCKASGYTFTTSTMHWVKQRPGQGLEWIGYINPRSGYTEYNQKFKDKTTLTADKSSSTAYMQLSSLTSEDSAVYYCARHYYFDYWGQGTTVTVSS
VL: DIQMTQSTSSLSASLGDRVTISCRASQDIRNYLNWYQQKPDGTVKLLIYYTSRLHSGVPSRFSGSGSGTDYSLTISNLEQEDIATYFCQQGNTLPPTSGGGTKLEIK
B10 yielded an EC50 in experiment [1] of 1.91 µg/mL.

B11: D5 Fab (Fab, V domains shown)
VH: HVQLQQSGAELVRPGTSVKISCKASGYTFTNYWLGWVKQRPGHGLEWIGDIYPGGGYTNYNEKFKGKATLTADTSSSTAYMQLSSLTSEDSAVYFCARVTPASWGQGTSLTVSS
VL: DIVMTQSQKFMSTSVGDRVSVTCKASQNVGTNVAWYQQKPGQSPKALIYSASYRYSGVPDRFTGSGSGTDFTLTISNVQSEDLAEYFCQQYNSYPYTFGGGTKLEMK
notes: Fab from mouse immune phage library, expressed in E. coli; also called Fab clone D5
With B11, in experiment [2], the “pSTAT5 IC50 (1 ug/mL) [ng/ml]” value was 0.303 ng/ml, the “pSTAT5 IC50 (2 ug/mL) [ng/ml]” value was determined as 0.488 ng/ml and the “pSTAT5 IC50 (5 ug/mL) [ng/ml]” value came out at 1.65 ng/ml. The koff in experiment [3] stood at 0.00412 s⁻¹. Besides, the koff in experiment [4] came to 0.00345 s⁻¹.

B12: D17 Fab (Fab, V domains shown)
VH: QIQLQQSGAELVRPGTSVKISCKASGYTFTNYWLGWVKQRPGHGLEWIGDIYPGGGYTNYNEKFKGKATLTADTSSSTAYMQLSSLTSEDSAVYFCARVTPASWGQGTTLTVSA
VL: DILLTQSQKFMSTSVGDRVSVTCKASQNVGTNVAWYQQKPGQSPKALIYSASYRYSGVPDRFTGSGSGTDFTLTISNVQSEDLAEYFCQQYNSYPLTFGGGTKLEIK
notes: Fab; also called Fab clone D17
As for B12, in experiment [2], the “pSTAT5 IC50 (1 ug/mL) [ng/ml]” value came out at 0.251 ng/ml, the “pSTAT5 IC50 (2 ug/mL) [ng/ml]” value stood at 0.217 ng/ml and the “pSTAT5 IC50 (5 ug/mL) [ng/ml]” value amounted to 0.283 ng/ml. Moreover, in experiment [3], the koff is 0.00536 s⁻¹. Moreover, the koff in experiment [4] was 0.00337 s⁻¹.

B13: D16 Fab (Fab, V domains shown)
VH: QVQMQQSGAELVRPGTSVKISCKASGYTFTNYWLGWVKQRPGHGLEWIGDIYPGGGYTNYNEKFKGKATLTADTSSSTAYMQLSSLTSEDSAVYFCARVTPASWGQGTTLTVSS
VL: DIQMTQSQKFMSTSVGDRVSVTCKASQNVGTNVAWYQQKPGQSPKALIYSASYRYSGVPDRFTGSGSGTDFTLTISNVQSEDLAEYFCQQYNSYPWTFGGGTKLEIK
notes: Fab; also called Fab clone D16
For B13, in experiment [2], the “pSTAT5 IC50 (1 ug/mL) [ng/ml]” value amounted to 0.43 ng/ml, the “pSTAT5 IC50 (2 ug/mL) [ng/ml]” value came out at 4.77 ng/ml and the “pSTAT5 IC50 (5 ug/mL) [ng/ml]” value was found to be 40.3 ng/ml. The koff in experiment [3] came to 0.00591 s⁻¹. Besides, the koff in experiment [4] is 0.004 s⁻¹.

B14: 7G7B6 (antibody, V domains shown)
VH: EVQLVESGGDLVQPRGSLKLSCAASGFTFSSYGMSWVRQTPDKRLELVATINGYGDTTYYPDSVKGRFTISRDNAKNTLYLQMSSLKSEDTAMYFCARDRDYGNSYYYALDYWGQGTSVTVSS
VL: QIVLSQSPAILSASPGERVTMTCRASSSVSFMHWLQQKPGSSPKPWIYATSNLASGVSARFSGSGSGTSYSLTITRVEAEDAATYYCQQWSSNPPAFGGGTKLEIK
As to B14, in experiment [2], the “pSTAT5 IC50 (1 ug/mL) [ng/ml]” value turned out to be 0.963 ng/ml, the “pSTAT5 IC50 (2 ug/mL) [ng/ml]” value is 0.906 ng/ml and the “pSTAT5 IC50 (5 ug/mL) [ng/ml]” value stood at 1.47 ng/ml. Further, in experiment [1], a half-maximal response (EC50) required 0.903 µg/mL.
